From patent US20060142171A1, “Novel alkaline protease” (priority 2003, published 2006)

Legend:
casein = experiment: Protease activity with casein as substrate (specific activity, pH and temperature profile); format: biochemical; conditions: for Optimum pH for activity: assayed at 50° C.
Method: The AL protease activity with 0.1-4% (w/v) casein and haemoglobin (Sigma), respectively, as protein substrates, was determined using a modified method of Ferrero et al. (1996). The reaction mixture in a total volume of 1 ml containing the substrate and an appropriate amount of the enzyme in 50 mM glycine-NaOH buffer, pH 10 was incubated at […] for 20 min, after which the reaction was terminated by addition of 0.5 ml trichloroacetic acid with subsequent centrifugation. To 0.5 ml supernatant was added 2.5 ml sodium carbonate followed by 0.5 ml of 1 M Folin-Ciocalteau Phenol reagent (Sigma). The reaction mixture was allowed to stand for 30 min-at room temperature before absorbance was measured at 660 nm. One unit of enzyme activity is defined as amount of the enzyme, which released 1 μg tyrosine per minute under the assay conditions.
Protease activity was determined using casein as substrate as described earlier [3.12]. The reaction mixture in a total volume of 2 ml was composed of 1% casein, 50 mM glycine-NaOH buffer, pH 10, and appropriately diluted enzyme. After 20 min incubation at 50° C. the reaction was terminated by adding equal volume of 10% trichloroacetic acid (TCA). After separation of the unreacted casein precipitate by centrifugation, 0.5 ml of clear supernatant was mixed with 2.5 ml of 0.5 M Na2CO3 and 0.5 ml of 1 N Folin-Ciocalteau's phenol reagent. After 30 min at 25° C., absorbance was measured at 660 nm against a reagent blank. One unit of protease activity was defined as the amount of enzyme that released 1 μg of amino acid equivalent to tyrosine per min under the standard assay conditions.
Both proteases were optimally active in the alkaline region.
The effect of temperature on activity of the two proteases was determined by assaying enzyme activity at different temperatures in glycine-NaOH buffer, pH 10, while the thermal stability was determined by incubating the enzymes at different temperatures followed by measuring the residual activity under standard conditions. These measurements were done both in the presence and absence of 5 mM Ca^2+. […] Its optimum temperature for activity was at 70° C. (FIG. 9A), but when incubated at that temperature the enzyme was inactivated within 1 h (FIG. 10A). […] At temperature values above 50° C. Ca^2+ was absolutely required for the thermal stability of AL-89 protease (FIG. 10B).
Assay of protease activity was performed according to Ferrero et al. with some modifications. One millilitre of the reaction mixture containing 1% casein in 50 mM glycine-NaOH buffer, pH 10.0 and an appropriate amount of enzyme was incubated at 50° C. for 20 min after which the reaction was terminated by addition of 0.5 ml of trichloroacetic acid and centrifuged. 2.5 ml sodium carbonate was added to 0.5 ml supernatant followed by 0.5 ml of 1 M Folin-Ciocalteau reagent. The reaction mixture was allowed to stand for 30 min at room temperature before measuring the absorbance at 660 nm. One unit of protease activity was defined as the amount of enzyme, which released 1 μg tyrosine per min under standard assay conditions.

elastin-orcein = experiment: Elastolytic activity; format: biochemical; conditions: 100 mM Tris-HCl buffer pH 8.8, 37° C.
Method: Elastolytic activity of AL protease was estimated by the method of (Tsai et al. 1983) with slight modification. The reaction mixture in a total volume of 1.5 ml comprised of 20 mg elastin-orcein and an appropriate amount of the enzyme in 100 mM Tris-HCl buffer pH 8.8, was incubated at 37° C. for 1 h with constant shaking. The substrate was removed by centrifugation and increase in optical density was measured at 590 nm. A control reaction was performed using the denatured enzyme as described above. The concentration of soluble products liberated was calculated from a standard curve using elastase. One unit was defined as the amount of enzyme, which solubilizes 100 μg of elastin under standard reaction conditions.

Isoelectric point = format: physicochemical
oxidized insulin B-chain = experiment: Hydrolysis of oxidized insulin B-chain (MALDI-TOF); format: biochemical; conditions: 50° C., enzyme-substrate molar ratio of 1:100, pH 9
Method: To 0.38 mg of the oxidized insulin B-chain (Sigma) dissolved in 1 ml of 10 mM Tris-HCl buffer, pH 9 was added 10 μl (5.5 units) of the AL enzyme. The mixture was incubated at 50° C. for 15 min and 12 h, respectively, after which one drop (approx 40 μl) of 0.1% (v/v) TFA was added to inactivate the enzyme.
Identification of the cleavage products was performed on a matrix assisted laser desorption ionisation reflectron-type time-of-flight (MALDI-TOF) mass spectrometer (REFLEX, Bruker-Franzen Analytik; Bremen, Germany).
Cleavage of oxidized insulin B-chain by the AL protease at 50° C. was investigated using an enzyme-substrate molar ratio of 1:100. The reaction products were analyzed by MALDI-TOF mass spectrometry and identified from the mass of corresponding peptide pairs.

[1] = Circular dichroism spectroscopy; format: physicochemical
Method: The conformational stability of the AL protease was examined by circular dichroism (CD) spectroscopy and compared with that of Subtilisin Carlsberg (bacterial protease, type VIII; Sigma Chemical Co., St. Louis, USA). The CD spectra of the proteins were obtained on a Jasco spectropolarimeter model J-720, at 25° C. in the far UV range from 195 to 250 nm at a scan rate of 10 nm/min using a sample cell path length of 0.1 cm. The ellipticity values (θ) for every nm wavelength increase were obtained in mdeg directly from the instrument and were recorded online in a computer. An average of 6 scans was calculated and the corresponding no-enzyme spectra were subtracted for each sample.

[2] = Autolytic degradation by SDS-PAGE; format: physicochemical; conditions: incubation at 50° C. up to 24 h; not shown
Method: Autolytic degradation of the protease was investigated by SDS-PAGE. The AL protease and Subtilisin Carlsberg were individually incubated in 10 mM Tris-HCl buffer 8 for 24 h at 50° C. Electrophoresis of the enzyme samples taken at different time intervals was performed according to the method of Laemmli, on 12% polyacrylamide gel using a Mini Protean II equipment (Bio-Rad, Richmond, Calif.).

B1: AL protease: thermostable alkaline, non-Ca2+-dependent serine protease isolated from Nesterenkonia sp. nov. strain AL (DSM 15380); SEQ. ID. NO. 1 (protein, listed as Nesterenkonia sp.)
chain: QNPADSPHIGKVFFSTNQGDFVCSANIVASANQSTVATAGHCLHDGNGGQFARNFVFAPAYDYGESEHGVWAAEELVTSAEWANRGDFEHDYAFAVLETKGGTTVQQQVGTASPIAFNQPRGQYYSAYGYPAAAPFNGQELHSCHGTATNDPMGSSTQGIPCNMTGGSSGGPWFLGQGTGGAQNSVNSYGYTFLPDVMFGPYFGSGAQQNYNYAST
casein; 50 mM glycine-NaOH, pH 10 at 50° C.
  Time to complete hydrolysis of casein: ≤ 20 min
casein
  Optimum pH for activity: 10
casein; listed as alkaline protease from Nesterenkonia sp. nov. strain
  Optimum pH for activity: 10
casein; at pH 12
  Activity as % of peak activity: about 60%
casein; between pH 7.5 to 11.5
  Activity as % of maximum activity: over 90%
casein; glycine-NaOH buffer, pH 10, same in presence and absence of 5 mM Ca^2+
  Optimum temperature for activity: 70 °C
casein; purified enzyme, casein as substrate, pH 10, 50° C., listed as Nesterenkonia sp. AL protease
  Specific activity: 1802.3 U/mg
casein; with and without 5 mM Ca^2+, all temperatures tested
  Ca^2+ dependence of activity and stability: Ca^2+ independent
elastin-orcein
  Hydrolysis of elastin-orcein: able to hydrolyse elastin-orcein to a detectable level
Isoelectric point
  Isoelectric point: 4.2
Oxidized insulin B-chain
  Initial cleavage site in oxidized insulin B-chain: Leu^15-Ty^16
[1]; 0.1-1% (w/v) SDS, data not shown
  Secondary structure in the presence of SDS: no alteration
[1]; 24 h at 50° C., 10 mM glycine-NaOH buffer, pH 10.0
  Secondary structure after incubation: undisturbed
[2]
  Degradation on gel electrophoresis: unaltered
